The source of these data is patent publication US20220323583A1, “Pharmaceutical Formulations of Bi-Specific Diabodies and Use of the Same” (MacroGenics, Inc., priority 2019, published 2022).

What is called Kd is a measure of binding affinity in units of concentration. Lower therefore signals a tighter complex. The term koff denotes the first-order rate constant of dissociation. The term kon denotes a measure of how fast the partners come together. High values mean fast association, low ones slow association.

In assay [1] the target is Cynomolgus CD3ε/δ (cynomolgus monkey) (UniProt Q95LI5). The assay can be described thus: kinetic binding measurement, method not stated.
The target of another assay is Human CD3ε/δ (human) (UniProt P07766). Nature of the assay: kinetic binding measurement, method not stated.
Human CD3ε/δ (human), sequence (P07766 23-126, stated change not applied, chain 1 of 2): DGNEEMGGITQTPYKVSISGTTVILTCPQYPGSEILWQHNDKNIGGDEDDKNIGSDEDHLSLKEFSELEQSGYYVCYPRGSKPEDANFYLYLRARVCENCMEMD
Human CD3ε/δ (human), sequence (P04234 22-105, stated change not applied, chain 2 of 2, further chain): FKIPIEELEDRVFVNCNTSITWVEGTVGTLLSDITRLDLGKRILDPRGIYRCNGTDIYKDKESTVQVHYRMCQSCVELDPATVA

B1: DART-A, sequence-optimized CD123×CD3 bispecific diabody (bispecific antibody)
chain 1: QAVVTQEPSLTVSPGGTVTLTCRSSTGAVTTSNYANWVQQKPGQAPRGLIGGTNKRAPWTPARFSGSLLGGKAALTITGAQAEDEADYYCALWYSNLWVFGGGTKLTVLGGGGSGGGGEVQLVQSGAELKKPGASVKVSCKASGYTFTDYYMKWVRQAPGQGLEWIGDIIPSNGATFYNQKFKGRVTITVDKSTSTAYMELSSLRSEDTAVYYCARSHLLRASWFAYWGQGTLVTVSSGGCGGGEVAALEKEVAALEKEVAALEKEVAALEK
chain 2: DFVMTQSPDSLAVSLGERVTMSCKSSQSLLNSGNQKNYLTWYQQKPGQPPKLLIYWASTRESGVPDRFSGSGSGTDFTLTISSLQAEDVAVYYCQNDYSYPYTFGQGTKLEIKGGGSGGGGEVQLVESGGGLVQPGGSLRLSCAASGFTFSTYAMNWVRQAPGKGLEWVGRIRSKYNNYATYYADSVKDRFTISRDDSKNSLYLQMNSLKTEDTAVYYCVRHGNFGNSYVSWFAYWGQGTLVTVSSGGCGGGKVAALKEKVAALKEKVAALKEKVAALKE
In assay [1], B1 registered a Kd of 9.2 nM, a koff of 0.005 s⁻¹ and a kon of 550000 M⁻¹ s⁻¹. In addition, in the assay with Human CD3ε/δ (human), the Kd came to 9 nM, the koff turned out to be 0.005 s⁻¹ and the kon worked out at 570000 M⁻¹ s⁻¹.
